Test [1] addresses TfiT, yeast two-hybrid fusion (Helicobacter pylori). The experiment in a line: two-hybrid; pGBT9 bait and pGAD424 prey in S. cerevisiae PJ69-4A; lacZ reporter, β-galactosidase activity in cell extracts with ONPG.
For test [2], the target named is TfiA, yeast two-hybrid fusion (Helicobacter pylori). The test is described as above.

In test [1], “TfiA, yeast two-hybrid fusion (natural protein)” came in with a lacZ fold increase relative to the self-activation control of the bait vector of 47.2 fold and a lacZ reporter activity (Miller units) of 89.8 Miller units. Moreover, in test [2], the lacZ fold increase relative to the self-activation control of the bait vector is 27.4 fold and the lacZ reporter activity (Miller units) stood at 129 Miller units.

On to TfiT, yeast two-hybrid fusion (enzyme), for which, in test [2], the lacZ fold increase relative to the self-activation control of the bait vector was 12.9 fold and the lacZ reporter activity (Miller units) was 60.8 Miller units.
